Results reported in PMC4159269.

What was measured:
Test in all cases: co-IP; HEK293T co-transfected with FLAG-Siah construct and HA-PHD3; lysate on anti-FLAG M2 agarose beads, 4°C 1 hour, washed with NP40 lysis buffer; blot with anti-HA; densitometry as percentage of WT Siah2 SBD for Fig. 7c
[1] = target: SBD[S1]^NT[S2]^CT (SBD chimera with Siah1 N-terminus and Siah2 C-terminus) (human)
[2] = target: [S1-6Mut]^NT[S2]^CT (6Mut = E17S/P21H/A26P/P57S/Q62A/F98H) (human)
[3] = target: [S1-8Mut]^NT[S2]^CT (8Mut = N3S/E17S/P21H/A26P/F34Y/P57S/Q62A/F98H) (human)

binding as percentage of the binding of WT Siah2 SBD to PHD3 (densitometry) [1]: 4 percent
binding as percentage of the binding of WT Siah2 SBD to PHD3 (densitometry) [2]: 29 percent
binding as percentage of the binding of WT Siah2 SBD to PHD3 (densitometry) [3]: 48 percent
Substance: HA-PHD3 (prolyl hydroxylase 3) (from UniProt Q9H6Z9 1-239) (natural protein)
